Target: human PD-L1, full length, expressed on transfected HEK293 cells (human) (UniProt Q9NZQ7)
Test: flow cytometry, HEK293 cells transfected with human PD-L1

Chain of human PD-L1, full length, expressed on transfected HEK293 cells (human) (Q9NZQ7 19-290): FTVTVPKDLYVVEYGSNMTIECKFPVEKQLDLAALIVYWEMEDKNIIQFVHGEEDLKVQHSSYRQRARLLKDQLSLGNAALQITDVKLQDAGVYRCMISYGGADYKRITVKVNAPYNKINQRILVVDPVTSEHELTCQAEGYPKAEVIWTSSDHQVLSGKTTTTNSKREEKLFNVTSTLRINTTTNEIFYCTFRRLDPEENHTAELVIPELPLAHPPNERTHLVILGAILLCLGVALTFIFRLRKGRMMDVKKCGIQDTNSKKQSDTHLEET

B1: variant CD80 IgV-Fc A12T/E24D/E35D/D46V/I61V/L72P/E95V (Fc fusion, not shown: a dimerising Fc or GST)
chain: VIHVTKEVKEVTTLSCGHNVSVEDLAQTRIYWQKDKKMVLTMMSGVMNIWPEYKNRTIFDVTNNLSIVILAPRPSDEGTYECVVLKYEKDAFKRVHLAEVTLSVKAD
For B1, the MFI at 22.2 nM was 1220 MFI.

Reference: patent US20210130436A1
